For one assay, the system named is MCF-7 cells. Description: MCF-7 cell proliferation assay, agonist format. Type of assay: cell-based, human. The settings on record: MCF-7 and MiaPaCa cell proliferation (Tables 27-28).
In assay [1] the target is insulin receptor construct transfected into 32D cells (Homo sapiens, UniProt P06213). Kind of assay: IR autophosphorylation assay in IR transfected 32D cells (ELISA). The note with it: MBP fusion peptides, FIG. 30. On the technique in general: An ELISA detects its analyte on a solid surface through an enzyme-linked reagent.

B1: D112-12-RP30-IGF: dimer peptide (Site 1-Site 1) (peptide)
chain: ADYKDCWARPCGDAANFYDWFVQQASKKGGSGGSGGSGGSSFYSCLESLVNGGAERSDGQWEGCRAAAGAPVPYPDPLEPRPG
B1: the “IGF-1R agonist activity” value in the assay on MCF-7 cells is listed as “IGF-1R agonist activity”.

B2: H2C-9aa-H2C: MBP fusion, H2C dimer peptide with 9 amino acid linker (protein)
chain: NNNNLGIEGRISEFIEGRAQPAMAFHENFYDWFVRQVSGGSGGSGGSFHENFYDWFVRQVSAAAGAPVPYPDPLEPRAA
modifications: left off: large carriers; small tags and cut ends
On to B2, for which, in assay [1], the “stimulation of autophosphorylation of IR” value is reported as “active”.

B3: H2C-3aa-H2C: MBP fusion, H2C dimer peptide (Site 1-Site 1) with 3 amino acid linker (protein)
chain: NNNNLGIEGRISEFIEGRAQPAMAFHENFYDWFVRQVSGGSFHENFYDWFVRQVSAAAGAPVPYPDPLEPRAA
modifications: left off: large carriers; small tags and cut ends
With B3, the “stimulation of autophosphorylation of IR” value in assay [1] is on record as “active”.

B4: RP30-IGF-12-D112: dimer peptide (Site 1-Site 1) (peptide)
chain: ADYKDSFYSCLESLVNGGAERSDGQWEGCRGGSGGSGGSGGSCWARPCGDAANFYDWFVQQASKKAAAGAPVPYPDPLEPRPG
As to B4, in the assay on MCF-7 cells, the “IGF-1R agonist activity” value is given as “IGF-1R agonist activity”.
